Results published in paper PMC9935832, “Calcium-dependent protein kinase CDPK16 phosphorylates serine-856 of glutamate receptor-like GLR3.6 protein leading to salt-responsive root growth in Arabidopsis^#” (Frontiers in Plant Science, 2023).

T1: 6xHis-14-3-3ω (Arabidopsis, UniProt Q01525 1-259)
T1 construct: End of the His tag read from the printed name 6xHis-14-3-3ω; Vector map in Appendix 1B; construct as in Chen et al. (2018); also called recombinant 6xHis-14-3-3ω; source: E. coli BL21, purified (Ni-NTA agarose); not shown: 6xHis, N-terminal, kept
T1 sequence (looked up): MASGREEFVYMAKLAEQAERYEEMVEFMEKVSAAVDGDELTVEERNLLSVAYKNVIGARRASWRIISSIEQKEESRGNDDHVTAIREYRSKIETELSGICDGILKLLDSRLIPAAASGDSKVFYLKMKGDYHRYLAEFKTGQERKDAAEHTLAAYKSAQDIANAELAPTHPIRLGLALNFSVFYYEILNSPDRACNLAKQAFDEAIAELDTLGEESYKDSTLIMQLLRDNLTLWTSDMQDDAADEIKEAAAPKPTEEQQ


Molecular target: T1, 6xHis-14-3-3ω
Experiment: pull-down; 6xHis-14-3-3ω and GST-fused GLR3.6 peptides (50 μg each) mixed with Ni-NTA agarose, 4°C, 2 h; western blot with α-His and α-GST
Settings: both partners purified

binding result | Binder
binds | EGSIRRRSSPSA (cloned by AscI and NotI into the GST-NRV vector; End of GST read from the printed name GST-GLR3.6; The vector-only control gives GST-RFP-Strep tag II, so the peptide fusion probably carries RFP and Strep tag II too; vector map in Appendix 1A; design as in Curran et al. (2011); also called GLR3.6 peptide fragment; source: E. coli BL21, purified (glutathione resin); not shown: GST, N-terminal, kept) [GST-GLR3.6 (GST-fused peptide fragment of GLR3.6, amino acids 854-865)]
binds | EGAIRRRSSPSA (peptide, UniProt Q84W41 854-865, looked up, End of GST read from the printed name; also called GLR3.6-S856A single mutant; source: E. coli BL21, purified (glutathione resin); not shown: GST, N-terminal, kept) [GST-GLR3.6-S856A (GST-fused peptide fragment)]
